For 6 molecules, IC50 results are on record in publication PMC9953004, “Scandium-44 Radiolabeled Peptide and Peptidomimetic Conjugates Targeting Neuropilin-1 Co-Receptor as Potential Tools for Cancer Diagnosis and Anti-Angiogenic Therapy” (Biomedicines, 2023).

To fix the notation:
B1: Lys(DOTA-Sc)-A7R (peptide)
peptide: H-K(DOTA′)ATWLPPR
modifications: also: DOTA chelating Sc
notes: Lys(DOTA)-Ala-Thr-Trp-Leu-Pro-Pro-Arg; the Lys is a linker before A7R; also called Sc-1bis; source: bought: CASLO ApS (conjugate 1bis), complexed with ScCl3
B2: Ala-Thr-Trp-Leu-Pro-Pro-Arg (A7R) heptapeptide (peptide)
peptide: ATWLPPR
notes: found by a mutated phage library screening; free C-terminal carboxyl group; also called ^LA7R; source: synthetic peptide (SPPS, Fmoc chemistry)
B3: Sc-DOTA-Ahx-A7R (peptide)
peptide: {DOTA″-Ahx}-ATWLPPR
modifications: also: Sc chelated by DOTA
notes: A7R peptide with linker and chelator on the N-terminus; also called Sc-1; source: synthetic peptide conjugate (SPPS), complexed with ScCl3

Primed or numbered codes have the meaning given here. Where no end group is shown, it is not given here. Side-chain parts run from the residue outwards. [ ]: non-standard residue; d: D form. The star is where a group is joined. DOTA″ = DOTA chelator, carrying Sc, O=C([O-])CN1CCN(CC(=O)[O-])CCN(CC(=O)*)CCN(CC(=O)[O-])CC1.[Sc+3]; DOTA′ = DOTA-Sc chelate, O=C([O-])CN1CCN(CC(=O)[O-])CCN(CC(=O)*)CCN(CC(=O)[O-])CC1.[Sc+3]; hArg = N=C(N)NCCCC[C@H](N)C(=O)O; Dab = NCC[C@H](N)C(=O)O; Ahx = NCCCCCC(=O)O Bounds are passed on as bounds.

The target in this experiment is T1, Recombinant human NRP-1 (neuropilin-1 co-receptor) (human, UniProt O14786 22-856).
T1 construct: neuropilin-1, human, recombinant; It is probably a soluble extracellular construct (surmise); source: bought: BioLegend
T1 sequence (looked up): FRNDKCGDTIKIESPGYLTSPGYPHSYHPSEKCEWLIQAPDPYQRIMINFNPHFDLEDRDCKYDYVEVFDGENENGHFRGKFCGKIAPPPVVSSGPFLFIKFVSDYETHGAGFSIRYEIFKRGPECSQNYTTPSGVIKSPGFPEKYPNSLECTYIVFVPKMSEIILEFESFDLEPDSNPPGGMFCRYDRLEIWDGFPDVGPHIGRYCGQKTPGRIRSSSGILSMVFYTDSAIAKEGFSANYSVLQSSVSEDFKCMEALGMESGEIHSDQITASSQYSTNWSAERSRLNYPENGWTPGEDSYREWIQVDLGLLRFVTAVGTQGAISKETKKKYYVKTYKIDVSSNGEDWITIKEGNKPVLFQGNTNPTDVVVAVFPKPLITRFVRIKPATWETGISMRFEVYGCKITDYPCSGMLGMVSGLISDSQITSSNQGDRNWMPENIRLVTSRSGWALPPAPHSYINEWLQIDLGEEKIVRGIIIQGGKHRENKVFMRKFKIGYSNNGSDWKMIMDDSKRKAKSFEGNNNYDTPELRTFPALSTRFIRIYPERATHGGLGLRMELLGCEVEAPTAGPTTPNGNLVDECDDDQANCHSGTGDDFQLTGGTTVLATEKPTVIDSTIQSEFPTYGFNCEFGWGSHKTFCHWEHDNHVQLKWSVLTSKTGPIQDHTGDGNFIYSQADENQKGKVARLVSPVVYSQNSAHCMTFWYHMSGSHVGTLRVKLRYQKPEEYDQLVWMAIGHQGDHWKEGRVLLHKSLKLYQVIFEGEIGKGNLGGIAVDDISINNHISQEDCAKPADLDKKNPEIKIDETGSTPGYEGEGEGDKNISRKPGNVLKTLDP
In words: ELISA; competitive; recombinant human NRP-1 coated on a 96-well plate (200 ng/well, overnight, 4 °C), blocked with 0.5% BSA in PBS; 50 µL compound in PBS (100, 50, 25, 12.5, 6.75 µM) plus 50 µL (400 ng/mL) human (bt)-VEGF-A165 in PBS with 4 µg/mL heparin; 2 h at room temperature; streptavidin-HRP, chemiluminescence; IC50 by nonlinear regression, mean ± SD of three experiments. The settings on record: both partners purified. (In general: In an ELISA, binding on a coated surface is turned into a signal by an enzyme label.)
The IC50 is the point on the concentration scale where inhibition reaches its midpoint. In the case of B1, the IC50 came to 18.1 µM.
Regarding B2, the half-inhibitory concentration (IC50) came to 17.5 µM.
With [dR][dP][dP][dL][dW][dT][dA] (also called ^DR7A) [retro-inverso isomer of A7R (DArg-DPro-DPro-DLeu-DTrp-DThr-DAla)] the figure was over 100 µM.
With B3 the figure was 22.5 µM.
With K(hArg)[Dab]PR [branched peptidomimetic Lys(hArg)-Dab-Pro-Arg (K4R)] the figure was 4.83 µM; with K(hArg)[Dab]([Ahx-DOTA″])PR (also: Sc chelated by DOTA) [Lys(hArg)-Dab(Ahx-DOTA-Sc)-Pro-Arg], 17.9 µM.
